Data: article PMC2288870

Columns and labels:
[1] = biological target: 50-kD chymotryptic fragment of thrombospondin (human); assay: non-reducing SDS-PAGE
[2] = biological target: 70-kD chymotryptic fragment of thrombospondin (human); assay: non-reducing SDS-PAGE

stoichiometry N [1]	stoichiometry N [2]	Substance
3		50-kD chymotryptic fragment of thrombospondin (domain or fragment)
	3	70-kD chymotryptic fragment of thrombospondin (domain or fragment)
